The record followed here is the supplement of paper PMC10567573.

B1: TLE6 (parent)
chain: FWHDTLTEQLWRIFAGVHDEKAKP
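Also: lentivirally expressed fusions sorted by FACS into six bins by GFP to DsRed ratio, PSI derived from sequencing read proportions per bin multiplied by bin number.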

The variants in the data set derive from B1. Kind of data set: protein stability index of a GFP-peptide fusion (GPS, HEK-293T) (PSI 1-6); higher = more stable. Conditions: c terminus: a fixed tail appended.
In the case of FWHDTDTEQLWRIFAGVHDEKAKP [L6D], the protein stability index was determined as 1.46.

Take FTHDTLTEQLWRIFAGVHDEKAKP [W2T]: the protein stability index is 2.35.

Turning to FDHDTLTEQLWRIFAGVHDEKAKP [W2D], the protein stability index is 2.61.

As for FHHDTLTEQLWRIFAGVHDEKAKP [W2H], the protein stability index came out at 3.

On to FQHDTLTEQLWRIFAGVHDEKAKP [W2Q], for which the protein stability index was found to be 2.87.

In the case of FYHDTLTEQLWRIFAGVHDEKAKP [W2Y], the protein stability index was determined as 1.85.

On to FEHDTLTEQLWRIFAGVHDEKAKP [W2E], for which the protein stability index amounted to 2.41.

As to FSHDTLTEQLWRIFAGVHDEKAKP [W2S], the protein stability index was found to be 1.62.

Take FFHDTLTEQLWRIFAGVHDEKAKP [W2F]: the protein stability index was 1.9.

As for FRHDTLTEQLWRIFAGVHDEKAKP [W2R], the protein stability index came to 2.46.

Take FPHDTLTEQLWRIFAGVHDEKAKP [W2P]: the protein stability index turned out to be 2.16.

As to FIHDTLTEQLWRIFAGVHDEKAKP [W2I], the protein stability index was 2.26.

For FNHDTLTEQLWRIFAGVHDEKAKP [W2N], the protein stability index is 2.1.

Regarding FMHDTLTEQLWRIFAGVHDEKAKP [W2M], the protein stability index was determined as 1.42.

For FCHDTLTEQLWRIFAGVHDEKAKP [W2C], the protein stability index stood at 1.66.

As for FAHDTLTEQLWRIFAGVHDEKAKP [W2A], the protein stability index was determined as 2.

With FGHDTLTEQLWRIFAGVHDEKAKP [W2G], the protein stability index was 1.69.

For the variant FVHDTLTEQLWRIFAGVHDEKAKP [W2V], the protein stability index was 3.26.

In the case of FKHDTLTEQLWRIFAGVHDEKAKP [W2K], the protein stability index was 2.11.

For the variant FLHDTLTEQLWRIFAGVHDEKAKP [W2L], the protein stability index was determined as 2.54.

Take FWHDTLTEQCWRIFAGVHDEKAKP [L10C]: the protein stability index is 1.94.

Consider FWHDTLTEQEWRIFAGVHDEKAKP [L10E], for which the protein stability index worked out at 2.41.

As for FWHDTLTEQGWRIFAGVHDEKAKP [L10G], the protein stability index stood at 2.24.

FWHDTLTEQIWRIFAGVHDEKAKP [L10I]: the protein stability index was 2.09.

Consider FWHDTLTEQRWRIFAGVHDEKAKP [L10R], for which the protein stability index stood at 1.6.

Consider FWHDTLTEQVWRIFAGVHDEKAKP [L10V], for which the protein stability index stood at 2.11.

As for FWHDTLTEQDWRIFAGVHDEKAKP [L10D], the protein stability index amounted to 2.34.

With FWHDTLTEQNWRIFAGVHDEKAKP [L10N], the protein stability index was found to be 1.92.

For FWHDTLTEQSWRIFAGVHDEKAKP [L10S], the protein stability index amounted to 2.61.

In the case of FWHDTLTEQHWRIFAGVHDEKAKP [L10H], the protein stability index amounted to 2.54.

FWHDTLTEQYWRIFAGVHDEKAKP [L10Y]: the protein stability index came out at 1.75.

For FWHDTLTEQMWRIFAGVHDEKAKP [L10M], the protein stability index was 1.88.

With FWHDTLTEQWWRIFAGVHDEKAKP [L10W], the protein stability index turned out to be 2.42.

For FWHDTLTEQAWRIFAGVHDEKAKP [L10A], the protein stability index stood at 2.17.

Turning to FWHDTLTEQPWRIFAGVHDEKAKP [L10P], the protein stability index was found to be 1.61.

Take FWHDTLTEQTWRIFAGVHDEKAKP [L10T]: the protein stability index was 1.74.

As for FWHDTLTEQFWRIFAGVHDEKAKP [L10F], the protein stability index was 1.68.

In the case of FWHDTLTEQKWRIFAGVHDEKAKP [L10K], the protein stability index was found to be 2.59.

Turning to FWHDTLTEQQWRIFAGVHDEKAKP [L10Q], the protein stability index worked out at 2.19.

As to FWHDTLTEQLPRIFAGVHDEKAKP [W11P], the protein stability index worked out at 3.12.

Take FWHDTLTEQLLRIFAGVHDEKAKP [W11L]: the protein stability index turned out to be 1.85.

For the variant FWHDTLTEQLCRIFAGVHDEKAKP [W11C], the protein stability index came out at 1.99.

On to FWHDTLTEQLHRIFAGVHDEKAKP [W11H], for which the protein stability index was determined as 2.52.

With FWHDTLTEQLERIFAGVHDEKAKP [W11E], the protein stability index is 2.85.

Take FWHDTLTEQLNRIFAGVHDEKAKP [W11N]: the protein stability index came to 2.19.

Consider FWHDTLTEQLARIFAGVHDEKAKP [W11A], for which the protein stability index turned out to be 2.37.

In the case of FWHDTLTEQLSRIFAGVHDEKAKP [W11S], the protein stability index was determined as 2.18.

Turning to FWHDTLTEQLMRIFAGVHDEKAKP [W11M], the protein stability index worked out at 1.76.

As for FWHDTLTEQLDRIFAGVHDEKAKP [W11D], the protein stability index worked out at 2.82.

Consider FWHDTLTEQLTRIFAGVHDEKAKP [W11T], for which the protein stability index came to 2.35.

Take FWHDTLTEQLKRIFAGVHDEKAKP [W11K]: the protein stability index was 2.52.

For FWHDTLTEQLIRIFAGVHDEKAKP [W11I], the protein stability index came to 1.79.

For the variant FWHDTLTEQLRRIFAGVHDEKAKP [W11R], the protein stability index worked out at 2.22.

With FWHDTLTEQLFRIFAGVHDEKAKP [W11F], the protein stability index was determined as 1.59.

As to FWHDTLTEQLQRIFAGVHDEKAKP [W11Q], the protein stability index was determined as 2.21.

Turning to FWHDTLTEQLGRIFAGVHDEKAKP [W11G], the protein stability index came to 2.46.

On to FWHDTLTRQLWRIFAGVHDEKAKP [E8R], for which the protein stability index was 1.85.

On to FWHDTLTMQLWRIFAGVHDEKAKP [E8M], for which the protein stability index turned out to be 1.1.

As to FWHDTLTYQLWRIFAGVHDEKAKP [E8Y], the protein stability index turned out to be 2.53.

With FWHDTLTGQLWRIFAGVHDEKAKP [E8G], the protein stability index was determined as 1.69.

As for FWHDTLTNQLWRIFAGVHDEKAKP [E8N], the protein stability index is 1.79.

Regarding FWHDTLTFQLWRIFAGVHDEKAKP [E8F], the protein stability index came out at 2.17.

For FWHDTLTLQLWRIFAGVHDEKAKP [E8L], the protein stability index turned out to be 2.23.

On to FWHDTLTIQLWRIFAGVHDEKAKP [E8I], for which the protein stability index is 1.66.

As for FWHDTLTTQLWRIFAGVHDEKAKP [E8T], the protein stability index came out at 1.74.

Turning to FWHDTLTCQLWRIFAGVHDEKAKP [E8C], the protein stability index amounted to 1.62.

Regarding FWHDTLTWQLWRIFAGVHDEKAKP [E8W], the protein stability index amounted to 2.35.

For the variant FWHDTLTVQLWRIFAGVHDEKAKP [E8V], the protein stability index was 2.95.

As to FWHDTLTDQLWRIFAGVHDEKAKP [E8D], the protein stability index was 2.02.

Regarding FWHDTLTPQLWRIFAGVHDEKAKP [E8P], the protein stability index was found to be 1.76.

For the variant FWHDTLTQQLWRIFAGVHDEKAKP [E8Q], the protein stability index is 2.64.

Consider FWHDTLTAQLWRIFAGVHDEKAKP [E8A], for which the protein stability index worked out at 1.66.

On to FWHDTLTKQLWRIFAGVHDEKAKP [E8K], for which the protein stability index stood at 2.04.

FWHDTLTSQLWRIFAGVHDEKAKP [E8S]: the protein stability index is 1.64.

On to FWHDTLTHQLWRIFAGVHDEKAKP [E8H], for which the protein stability index is 2.52.

In the case of FWHGTLTEQLWRIFAGVHDEKAKP [D4G], the protein stability index came out at 2.07.

In the case of FWHETLTEQLWRIFAGVHDEKAKP [D4E], the protein stability index stood at 1.99.

In the case of FWHVTLTEQLWRIFAGVHDEKAKP [D4V], the protein stability index turned out to be 2.09.

Take FWHRTLTEQLWRIFAGVHDEKAKP [D4R]: the protein stability index was determined as 1.58.

For the variant FWHKTLTEQLWRIFAGVHDEKAKP [D4K], the protein stability index stood at 1.76.

For the variant FWHHTLTEQLWRIFAGVHDEKAKP [D4H], the protein stability index turned out to be 1.8.

Take FWHWTLTEQLWRIFAGVHDEKAKP [D4W]: the protein stability index worked out at 1.29.

FWHSTLTEQLWRIFAGVHDEKAKP [D4S]: the protein stability index is 1.83.

For the variant FWHATLTEQLWRIFAGVHDEKAKP [D4A], the protein stability index turned out to be 1.49.

Take FWHITLTEQLWRIFAGVHDEKAKP [D4I]: the protein stability index was determined as 2.06.

As for FWHYTLTEQLWRIFAGVHDEKAKP [D4Y], the protein stability index amounted to 3.37.

For FWHLTLTEQLWRIFAGVHDEKAKP [D4L], the protein stability index worked out at 1.74.

FWHPTLTEQLWRIFAGVHDEKAKP [D4P]: the protein stability index worked out at 2.31.

In the case of FWHTTLTEQLWRIFAGVHDEKAKP [D4T], the protein stability index worked out at 1.73.

As to FWHFTLTEQLWRIFAGVHDEKAKP [D4F], the protein stability index was 3.05.

Regarding FWHQTLTEQLWRIFAGVHDEKAKP [D4Q], the protein stability index amounted to 2.29.

As for FWHNTLTEQLWRIFAGVHDEKAKP [D4N], the protein stability index was 1.71.

Turning to FWHMTLTEQLWRIFAGVHDEKAKP [D4M], the protein stability index was found to be 2.44.

With FWHCTLTEQLWRIFAGVHDEKAKP [D4C], the protein stability index is 1.91.
